Legend:
FadR_ec = FadR_ec (Escherichia coli, UniProt P0A8V6 1-239); test: EMSA
FadR_vc = FadR_vc (Vibrio cholerae, UniProt Q9KQU8 1-279); test: EMSA
Sequence of FadR_vc (Q9KQU8 whole entry): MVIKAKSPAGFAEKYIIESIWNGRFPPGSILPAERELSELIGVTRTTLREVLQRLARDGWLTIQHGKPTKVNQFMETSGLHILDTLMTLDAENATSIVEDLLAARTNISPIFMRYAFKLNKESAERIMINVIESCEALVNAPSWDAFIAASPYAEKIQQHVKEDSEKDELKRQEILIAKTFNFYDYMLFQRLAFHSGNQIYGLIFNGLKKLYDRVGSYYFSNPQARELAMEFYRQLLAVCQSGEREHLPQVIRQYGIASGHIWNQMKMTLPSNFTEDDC

Sequence of FadR_ec (P0A8V6 whole entry): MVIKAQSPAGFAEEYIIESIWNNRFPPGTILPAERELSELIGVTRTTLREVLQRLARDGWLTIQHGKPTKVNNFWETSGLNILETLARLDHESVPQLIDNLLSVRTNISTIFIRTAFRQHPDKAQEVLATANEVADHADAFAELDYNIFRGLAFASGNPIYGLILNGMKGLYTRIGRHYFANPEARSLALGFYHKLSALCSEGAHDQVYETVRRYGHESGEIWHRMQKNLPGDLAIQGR

B1: plsB_vc FadR site probe (39 bp) (dsDNA)
DNA 1: TTAAATTAAAAGGTTTGACCAGTTTCTGGTATTCTTGGC
DNA 2: GCCAAGAATACCAGAAACTGGTCAAACCTTTTAATTTAA
FadR_ec
  binding result: binds
FadR_vc
  binding result: binds

From publication PMC3204382
